Here are results for two substances from doi:10.1101/2022.12.06.518574.

Like-named read-outs stand apart in the source and are kept apart here.

In general, stoichiometry N refers to a count of units in the complex or per binding partner.

For experiment [1], the target named is Streptococcus pyogenes enolase, wild type (WT-Sen) (Streptococcus pyogenes (Group A, isolate AP53)). Kind of experiment: AUC.
Experiment [2] shares this target. Nature of the experiment: AUC. This is another data set of the same source.
Experiment [3] shares this target. Kind of experiment: cryo-EM structure.
Experiment [4] concerns the target DOPG/Sen (the Sen variants of Figure 5A-D on DOPG vesicles). Nature of the experiment: flow cytometry of phospholipid vesicles. In general terms: Flow cytometry measures light scatter and fluorescence of single cells or particles in a stream.

Streptococcus pyogenes enolase, wild type (WT-Sen) (enzyme), sequence (A2RFE3 whole entry): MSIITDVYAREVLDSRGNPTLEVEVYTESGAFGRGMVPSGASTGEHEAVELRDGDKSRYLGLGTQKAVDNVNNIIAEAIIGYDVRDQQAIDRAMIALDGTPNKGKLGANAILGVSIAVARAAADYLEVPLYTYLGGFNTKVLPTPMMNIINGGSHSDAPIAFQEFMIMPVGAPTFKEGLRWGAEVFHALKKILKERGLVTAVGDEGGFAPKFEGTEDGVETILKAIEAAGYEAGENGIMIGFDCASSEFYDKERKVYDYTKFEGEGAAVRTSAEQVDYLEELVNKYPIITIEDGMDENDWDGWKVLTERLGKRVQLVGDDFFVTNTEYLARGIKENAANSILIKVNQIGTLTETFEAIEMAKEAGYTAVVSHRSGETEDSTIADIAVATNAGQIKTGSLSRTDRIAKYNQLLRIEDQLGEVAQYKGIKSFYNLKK

In the case of “Streptococcus pyogenes enolase, wild type (WT-Sen) (enzyme)”, the percent as octamer in experiment [1] and in experiment [2] was more than 95% in each case. The stoichiometry N in experiment [1], in experiment [2] and in experiment [3] was 8 throughout.

Consider “human plasminogen (hPg) (natural protein)”, for which, in experiment [4], the percent of vesicles in the gate that defines DOPG/Sen bound to hPg lay within 83 to 93%.
